Experimental data published in doi:10.1101/2025.10.13.682103.
“And” between values parts separate entries of the source, which are not always exact repeats. Equal values may be shown once.

Legend:
[1] = target: Mycoplasma penetrans methionyl-tRNA synthetase, full length, M568A (Mycoplasma penetrans); assay: cryo-EM structure
[2] = target: Mycoplasma penetrans methionyl-tRNA synthetase, full length, M568A (Mycoplasma penetrans); assay: cryo-EM structure; remark: listed apart in the source
[3] = target: Mycoplasma penetrans methionyl-tRNA synthetase, full length, M568A (Mycoplasma penetrans); assay: PAGE analysis

Substance: Mycoplasma penetrans methionyl-tRNA synthetase, full length, M568A (enzyme)
- stoichiometry N [1]: 4 and 6
- stoichiometry N [2]: 2
- stoichiometry N [3]: 2
